Data on 56 substances can be found in the supplement of paper PMC12042874.

± gives the uncertainty stated by the source.

The nature of this series: amyloid nucleation score (Sup35N fusion, yeast selection) (log enrichment); library NNK1; higher = more nucleation; inactive = no reads after selection. An outline of the steps: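 Sup35N was fused to peptides of 20 random codons and expressed in psi-negative yeast, which were induced with 100 μM copper sulfate for 24 hours and then grown on medium lacking adenine and uracil for 7 days at 30°C. Plasmid inserts from input and output were sequenced on Illumina. The nucleation score is the DiMSum log enrichment of output over input reads, centred on the mode score of non-aggregating sequences. Sequences with under 100 input reads were left out, and random libraries had three technical output replicates.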

SKIESHFWLVFNIRGSYNKA displayed an amyloid nucleation score of 7.298 ± 0.046. The value for ISCTNCLKCPLYTSFRPLLC was -0.13 ± 0.44; that for TNIFMSFKFLISSLRCFPER was 4.68 ± 0.12.

Substance VAEWRSMNVGVGRATIEGLS returned an amyloid nucleation score of 0.579 ± 0.28. The value for KNCAAFLHRHGFEVAQRGTC was -0.337 ± 0.78; that for VCILFSAPDNMWFFSD was 1.49 ± 0.45. The value for SKESKSSEARLLIR was -1.39 ± 1.3; that for GPLFYNTM was 0.159 ± 1.2.

Consider AYNLNLYNRCQVLMLISSTR, for which the amyloid nucleation score stood at 4.91 ± 0.048. The value for YSVINWFMVAYYRADRLVNG was -0.144 ± 1.2; that for FVVSDTGKVKWGMAQ was 2.68 ± 0.14.

In the case of SHTWKGTSCAFAMHAQRGSQ, the amyloid nucleation score entry was “inactive”.

As for FLQEVITDLKSVW, the amyloid nucleation score was 3.08 ± 0.12. In the case of PLEVWNRGVGPIGCVCRGLK, the amyloid nucleation score came to 1.29 ± 0.57.

Turning to RLWGYCMHSLVFDTNIWHPL, the amyloid nucleation score is 0.461 ± 0.32. The value for NNFGFET was 0.671 ± 0.31; that for NRNVYRSGVFGSGVWTRVER was 0.15 ± 0.45.

Turning to MVRYKRRSLELFMIARYSCC, the amyloid nucleation score amounted to 0.599 ± 1.2.

As for CYYLFLHSCSYARGIFC, the amyloid nucleation score is -0.366 ± 0.52. The value for ESMRFHRGEVGPLWDVRWGA was 1.61 ± 0.78; that for SNILFLYRMKRALPNSSWEA was 0.152 ± 0.48; that for PMAVRLSYCCNRIYVLY was 4.47 ± 0.097. To VDIKFFMGLAFMWRYSSTAD belongs -0.063 ± 0.39. The value for WRESSWLCMWERNVKVDWGR was -0.87 ± 1.7. Substance HYRRVTVMCPLRVFVYAPKT returned an amyloid nucleation score of 5.61 ± 0.094. The value for TEFHAKGPTWCELSYSFAIL was -0.195 ± 0.58; that for VTMRLL was 0.968 ± 0.63; that for IMVVFGITCVPASGNFLQGW was “inactive”. The substance RVLSSTNHSAYHWIEKGSTF came in with an amyloid nucleation score of 1.01 ± 0.31.

The substance CRYYRCSQKLDKLVTFTKKS showed an amyloid nucleation score of 0.722 ± 0.49. The value for VQFLLYSGFVQTILMPKASR was 3.02 ± 0.15. The value for LRAIRE was 0.33 ± 0.63; that for SGFIEVYVTIRFEFLYFHTP was 0.131 ± 0.18; that for DMLRMVRYTVWVSRVRSHGW was 3.07 ± 0.079. To SRILRLLHTVHCDGVGERLR belongs -0.104 ± 1.1. On to GMVLEWWIFMFGVPFSSDRA, for which the amyloid nucleation score is -0.122 ± 0.74. With TNCGITFVFTPIPRATTWSN, the amyloid nucleation score was 5.37 ± 0.083.

Substance RLFGLPKYCYVILFPVDVCH had an amyloid nucleation score of 0.132 ± 0.21. The value for LVSGRRGRRESSNHMVGLLE was 0.968 ± 0.51; that for CKVLCYIAYTWNLDCTEFEG was 6.449 ± 0.063.

Take VMYPRATLSQLRLKVTN: the amyloid nucleation score is -0.116 ± 0.4. The substance IWLVQIHVSSSMPTSYPHIS yielded an amyloid nucleation score of 0.355 ± 1.4. To YRPLVTPALSLTLNRFKVDV belongs 0.187 ± 0.35; to PSIEEEFSWVPAVFFFTWDM, -0.706 ± 1.2.

VFAFA showed an amyloid nucleation score of 0.126 ± 0.48.

With KYKVVI, the amyloid nucleation score was -0.289 ± 0.24. To APQSRFNHEYFFENIRRVVV belongs “inactive”; to QNFSRTGGIGIHKIFVGMGE, -1.13 ± 1.4. The value for KFILTVPMANSATYTFACLD was “inactive”.

Substance LTRSRGVSRLYIVRGVTDVW gave an amyloid nucleation score of 0.076 ± 0.43. For the substance FPILVCVLKVLDVVLSDRVL, the amyloid nucleation score result was “inactive”. To TSALWEVLW belongs 0.191 ± 0.58. The value for GGTCVRQFMVLDTHSHADEC was 0.66 ± 0.56; that for LFNLFSRL was 0.335 ± 0.51. Turning to NICTLYPT, the amyloid nucleation score was 0.236 ± 1.1.

Regarding NRWSGLSHRS, the amyloid nucleation score is -1.63 ± 2.1.
